Data from patent publication EP4703384A1 (Chia Tai Tianqing Pharmaceutical Group Co., Ltd., dated 2026).

B1: GC35 (bispecific antibody, human IgG1, kappa, L234A L235A)
heavy: EVQLVQSGAEVVKPGASVKMSCKASGYTFTNYVMHWVKQAPGQGLEWMGYFNPYNDGTNYNEKFKGRVTLTSDTSANTAYMELSSLRSEDTAVYYCARGGVRRYFDVWGQGTTVTVSSASTKGPSVFPLAPSSKSTSGGTAALGCLVKDYFPEPVTVSWNSGALTSGVHTFPAVLQSSGLYSLSSVVTVPSSSLGTQTYICNVNHKPSNTKVDKKVEPKSCDKTHTCPPCPAPEAAGGPSVFLFPPKPKDTLMISRTPEVTCVVVDVSHEDPEVKFNWYVDGVEVHNAKTKPREEQYNSTYRVVSVLTVLHQDWLNGKEYKCKVSNKALAAPIEKTISKAKGQPREPQVCTLPPSREEMTKNQVSLSCAVKGFYPSDIAVEWESNGQPENNYKTTPPVLDSDGSFFLVSKLTVDKSRWQQGNVFSCSVMHEALHNHYTQKSLSLSPGK
light: DIQMTQSPSSLSASVGDRVTITCRASQDIGSNLNWLQLGPGGAIKRLIYATFSLDSGVPSRFSGSRSGSDYTLTISSLQPEDFVDYYCQQYANFPPTFGGGTKVEIKRTVAAPSVFIFPPSDEQLKSGTASVVCLLNNFYPREAKVQWKVDNALQSGNSQESVTEQDSKDSTYSLSSTLTLSKADYEKHKVYACEVTHQGLSSPVTKSFNRGEC
chain: ELVVTQEPSLTTSPGGTVTLTCRSSTGAVTTSNYANWVQQKPGQAPRGLIGGTNKRAPGTPARFSGSLLGGKAALTITGVQPEDEAEYYCALWYSNLWVFGGGTKLTVLGGGGSGGGGSGGGGSEVQLVESGGGLVQPGGSLRLSCAASGFTFNTYAMNWVRQAPGKGLEWVARIRSKYNNYATYYADSVKDRFTISRDDSKNTAYLQMNNLKTEDTAMYYCVRHGNFGNSYVSWFAYWGQGTLVTVSSGEPKSSDKTHTCPPCPAPEAAGGPSVFLFPPKPKDTLMISRTPEVTCVVVDVSHEDPEVKFNWYVDGVEVHNAKTKPREEQYNSTYRVVSVLTVLHQDWLNGKEYKCKVSNKALAAPIEKTISKAKGQPREPQVYTLPPCREEMTKNQVSLWCLVKGFYPSDIAVEWESNGQPENNYKTTPPVLDSDGSFFLYSKLTVDKSRWQQGNVFSCSVMHEALHNRYTQKSLSLSPGK
notes: also called anti-GPRC5D/anti-CD3 bispecific antibody GC35
B2: GC39 (bispecific antibody, human IgG1, kappa, L234A L235A)
heavy: EVQLVESGGGLVQPGGSRRVSCAASGFTFSSFGMHWVRQAPGKGLEWVAYISRGSSTIYYADTVKGRFTISRDNAKNSLYLQMNSLRAEDTAVYYCARSGYGSSSYYFDYWGQGTTVTVSSASTKGPSVFPLAPSSKSTSGGTAALGCLVKDYFPEPVTVSWNSGALTSGVHTFPAVLQSSGLYSLSSVVTVPSSSLGTQTYICNVNHKPSNTKVDKKVEPKSCDKTHTCPPCPAPEAAGGPSVFLFPPKPKDTLMISRTPEVTCVVVDVSHEDPEVKFNWYVDGVEVHNAKTKPREEQYNSTYRVVSVLTVLHQDWLNGKEYKCKVSNKALAAPIEKTISKAKGQPREPQVCTLPPSREEMTKNQVSLSCAVKGFYPSDIAVEWESNGQPENNYKTTPPVLDSDGSFFLVSKLTVDKSRWQQGNVFSCSVMHEALHNHYTQKSLSLSPGK
light: EIVLTQSPATLSASPGERATMSCRASSSIRSSYLHWYQQKPGQSPRLWIYSTSNLASGVPARFSGSGSGTDYTLTISSLEPEDAAVYYCQQFSGYPLTFGGGTKVEIKRTVAAPSVFIFPPSDEQLKSGTASVVCLLNNFYPREAKVQWKVDNALQSGNSQESVTEQDSKDSTYSLSSTLTLSKADYEKHKVYACEVTHQGLSSPVTKSFNRGEC
chain: B1 chain
notes: also called anti-GPRC5D/anti-CD3 bispecific antibody GC39

Legend:
human GPRC5D protein [1] = target: T1, human GPRC5D protein (human, UniProt Q9NZD1 1-345); test: FACS on MM.1S cells
T1 construct: also called hGPRC5D; CHO-K1-hGPRC5D^hi

human GPRC5D protein [2] = target: T1, human GPRC5D protein; test: cell-based or functional assay
T cell surface CD3 [3] = target: T2, T cell surface CD3 (human, UniProt P07766 23-207; P04234 22-171; P09693 23-182); test: cell-based or functional assay
T cell surface CD3 [4] = target: T2, T cell surface CD3; test: FACS on human CD3+ T cells
human GPRC5D protein [5] = target: T1, human GPRC5D protein; test: FACS on RPMI-8226 cells
human GPRC5D protein [6] = target: T1, human GPRC5D protein; test: FACS on NCI-H929 cells

T2 sequence (P07766 23-207 limits assumed, chain 1 of 3): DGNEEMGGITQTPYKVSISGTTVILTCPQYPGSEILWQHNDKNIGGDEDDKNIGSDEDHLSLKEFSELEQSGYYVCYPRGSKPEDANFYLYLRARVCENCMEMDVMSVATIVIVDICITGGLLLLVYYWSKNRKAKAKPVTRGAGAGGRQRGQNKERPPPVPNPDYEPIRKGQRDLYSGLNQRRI
T2 sequence (P04234 22-171 limits assumed, chain 2 of 3): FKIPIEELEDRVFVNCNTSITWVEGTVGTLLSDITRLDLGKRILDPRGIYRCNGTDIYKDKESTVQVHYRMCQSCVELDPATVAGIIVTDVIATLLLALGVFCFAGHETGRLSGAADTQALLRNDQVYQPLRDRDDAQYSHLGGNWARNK
T2 sequence (P09693 23-182 limits assumed, chain 3 of 3): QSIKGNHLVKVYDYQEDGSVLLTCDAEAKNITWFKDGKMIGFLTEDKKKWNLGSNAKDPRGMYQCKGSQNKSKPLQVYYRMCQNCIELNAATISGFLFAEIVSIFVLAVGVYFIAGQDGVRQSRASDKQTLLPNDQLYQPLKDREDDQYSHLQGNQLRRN
T1 sequence (Q9NZD1 whole entry): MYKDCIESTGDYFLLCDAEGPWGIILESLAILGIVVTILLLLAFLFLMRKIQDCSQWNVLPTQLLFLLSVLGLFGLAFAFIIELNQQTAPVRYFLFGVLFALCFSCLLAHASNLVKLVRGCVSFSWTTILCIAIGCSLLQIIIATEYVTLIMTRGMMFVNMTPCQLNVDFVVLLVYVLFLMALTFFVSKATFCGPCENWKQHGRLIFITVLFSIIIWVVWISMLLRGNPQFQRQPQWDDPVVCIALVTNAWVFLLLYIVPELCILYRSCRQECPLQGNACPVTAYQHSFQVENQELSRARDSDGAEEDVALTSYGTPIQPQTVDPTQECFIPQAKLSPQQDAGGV

| Binder | EC50 (human GPRC5D protein [1]) [nM] | Lysis EC50(nM), MM.1S target cells with human PBMC (human GPRC5D protein [2]) [nM] | Lysis EC50(nM), NCI-H929 target cells with human PBMC (human GPRC5D protein [2]) [nM] | Lysis EC50(nM), RPMI-8226 target cells with human PBMC (human GPRC5D protein [2]) [nM] | CD25/CD4 EC50(nM), activation of T cells in the presence of MM.1S (T cell surface CD3 [3]) [nM] | CD25/CD8 EC50(nM), activation of T cells in the presence of MM.1S (T cell surface CD3 [3]) [nM] | CD69/CD4 EC50(nM), activation of T cells in the presence of MM.1S (T cell surface CD3 [3]) [nM] | CD69/CD8 EC50(nM), activation of T cells in the presence of MM.1S (T cell surface CD3 [3]) [nM] | EC50 (T cell surface CD3 [4]) [nM] | Top(MFI) (T cell surface CD3 [4]) | EC50 (human GPRC5D protein [5]) [nM] | EC50 (human GPRC5D protein [6]) [nM] |
| --- | --- | --- | --- | --- | --- | --- | --- | --- | --- | --- | --- | --- |
| B1 | 3.75 | 0.00534 | 0.00592 | 0.0163 | 0.00999 | 0.00879 | 0.00738 | 0.00458 | 48.9 | 54700 | 15.9 | 3.04 |
| B2 | 3.71 | 0.0335 | 0.0146 | 0.136 | 0.0596 | 0.0448 | 0.0438 | 0.0226 | 37.9 | 38000 |  | 16.7 |
